Test results reported in the supplement of paper PMC9112550, “Optimization of the antimicrobial peptide Bac7 by deep mutational scanning” (BMC Biology, 2022).

system: Escherichia coli TOP10; experiment: shrunken log2 fold change of peptide-encoding DNA abundance (4.5 h post-induction vs induction); higher = less antimicrobial activity (less host growth inhibition); conditions: time post-induction: 4.5 h; library: site-saturation at positions 5, 18, 19, 20
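Also: peptides expressed intracellularly from a pBAD plasmid library in pooled LB shake-flask culture, induced with 0.3% L-arabinose, DNA abundance read by NGS, three biological replicates, DESeq2 with apeglm shrinkage.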

Question: With RRIRRRPPRLPRPRPRPCSNPRP as the sequence, how does the “shrunken log2 fold change” value read?
Answer: -0.166

Question: Which “shrunken log2 fold change” value does the source give for RRIRKRPPRLPRPRPRPYYMPRP here?
Answer: -0.405

Question: Which “shrunken log2 fold change” value does the source give for RRIRGRPPRLPRPRPRPRYSPRP here?
Answer: -0.173

Question: How did the “shrunken log2 fold change” value turn out when RRIRERPPRLPRPRPRPWFHPRP was run?
Answer: -0.421

Question: RRIRTRPPRLPRPRPRPTPYPRP was tested. Which “shrunken log2 fold change” value did it give?
Answer: -0.298

Question: For RRIRQRPPRLPRPRPRPHWYPRP, which “shrunken log2 fold change” value is on record?
Answer: -0.0983

Question: How did the “shrunken log2 fold change” value turn out when RRIRLRPPRLPRPRPRPRWAPRP was run?
Answer: 0.145

Question: RRIRTRPPRLPRPRPRPEMKPRP was tested. Which “shrunken log2 fold change” value did it give?
Answer: 0.258

Question: Which “shrunken log2 fold change” value does the source give for RRIRYRPPRLPRPRPRPDNQPRP here?
Answer: -0.644

Question: Which “shrunken log2 fold change” value does the source give for RRIRTRPPRLPRPRPRPKRLPRP here?
Answer: 0.2

Question: How did the “shrunken log2 fold change” value turn out when RRIRYRPPRLPRPRPRPRRMPRP was run?
Answer: -0.0427

Question: Which “shrunken log2 fold change” value does the source give for RRIRQRPPRLPRPRPRPNREPRP here?
Answer: -0.0709

Question: With RRIRYRPPRLPRPRPRPIAMPRP as the sequence, how does the “shrunken log2 fold change” value read?
Answer: -0.322

Question: Which “shrunken log2 fold change” value does the source give for RRIRVRPPRLPRPRPRPTQFPRP here?
Answer: 0.203

Question: For RRIRARPPRLPRPRPRPSENPRP, which “shrunken log2 fold change” value is on record?
Answer: 0.182

Question: Which “shrunken log2 fold change” value does the source give for RRIRSRPPRLPRPRPRPYELPRP here?
Answer: 0.093

Question: For RRIRKRPPRLPRPRPRPPQIPRP, which “shrunken log2 fold change” value is on record?
Answer: 0.661

Question: For RRIRCRPPRLPRPRPRPLIPPRP, which “shrunken log2 fold change” value is on record?
Answer: -0.366

Question: How did the “shrunken log2 fold change” value turn out when RRIRTRPPRLPRPRPRPPTEPRP was run?
Answer: 0.498

Question: With RRIRSRPPRLPRPRPRPVRPPRP as the sequence, how does the “shrunken log2 fold change” value read?
Answer: 0.742

Question: With RRIRIRPPRLPRPRPRPLYVPRP as the sequence, how does the “shrunken log2 fold change” value read?
Answer: -1.06

Question: With RRIRTRPPRLPRPRPRPRNMPRP as the sequence, how does the “shrunken log2 fold change” value read?
Answer: -0.493

Question: With RRIRERPPRLPRPRPRPMYLPRP as the sequence, how does the “shrunken log2 fold change” value read?
Answer: -1.99

Question: How did the “shrunken log2 fold change” value turn out when RRIRWRPPRLPRPRPRPSSHPRP was run?
Answer: -0.248

Question: With RRIRCRPPRLPRPRPRPDTMPRP as the sequence, how does the “shrunken log2 fold change” value read?
Answer: 0.00262

Question: With RRIRSRPPRLPRPRPRPHTMPRP as the sequence, how does the “shrunken log2 fold change” value read?
Answer: -0.163

Question: Which “shrunken log2 fold change” value does the source give for RRIRERPPRLPRPRPRPLAWPRP here?
Answer: 0.039

Question: How did the “shrunken log2 fold change” value turn out when RRIRLRPPRLPRPRPRPSTSPRP was run?
Answer: -0.0196

Question: Which “shrunken log2 fold change” value does the source give for RRIRVRPPRLPRPRPRPKAHPRP here?
Answer: -0.00647

Question: With RRIRVRPPRLPRPRPRPVEIPRP as the sequence, how does the “shrunken log2 fold change” value read?
Answer: -0.0612

Question: With RRIRKRPPRLPRPRPRPESNPRP as the sequence, how does the “shrunken log2 fold change” value read?
Answer: 1.13

Question: Which “shrunken log2 fold change” value does the source give for RRIRMRPPRLPRPRPRPGLDPRP here?
Answer: 2.44

Question: With RRIRLRPPRLPRPRPRPMWEPRP as the sequence, how does the “shrunken log2 fold change” value read?
Answer: 0.00629

Question: RRIRYRPPRLPRPRPRPGFLPRP was tested. Which “shrunken log2 fold change” value did it give?
Answer: -0.454

Question: For RRIRTRPPRLPRPRPRPMCRPRP, which “shrunken log2 fold change” value is on record?
Answer: -0.0404

Question: RRIRVRPPRLPRPRPRPAMWPRP was tested. Which “shrunken log2 fold change” value did it give?
Answer: -0.0044

Question: For RRIRLRPPRLPRPRPRPVEYPRP, which “shrunken log2 fold change” value is on record?
Answer: -0.294

Question: How did the “shrunken log2 fold change” value turn out when RRIRFRPPRLPRPRPRPQDYPRP was run?
Answer: 0.0577

Question: RRIRYRPPRLPRPRPRPLDYPRP was tested. Which “shrunken log2 fold change” value did it give?
Answer: -1.11

Question: With RRIRVRPPRLPRPRPRPKESPRP as the sequence, how does the “shrunken log2 fold change” value read?
Answer: -0.0206

Question: How did the “shrunken log2 fold change” value turn out when RRIRARPPRLPRPRPRPVEHPRP was run?
Answer: 0.068

Question: With RRIRIRPPRLPRPRPRPNRTPRP as the sequence, how does the “shrunken log2 fold change” value read?
Answer: 0.101

Question: Which “shrunken log2 fold change” value does the source give for RRIRCRPPRLPRPRPRPYKVPRP here?
Answer: -1.05

Question: For RRIRFRPPRLPRPRPRPDHIPRP, which “shrunken log2 fold change” value is on record?
Answer: -0.00578

Question: With RRIRRRPPRLPRPRPRPTMDPRP as the sequence, how does the “shrunken log2 fold change” value read?
Answer: 0.147

Question: For RRIRCRPPRLPRPRPRPDAEPRP, which “shrunken log2 fold change” value is on record?
Answer: 1.03

Question: Which “shrunken log2 fold change” value does the source give for RRIRDRPPRLPRPRPRPATWPRP here?
Answer: 0.754

Question: Which “shrunken log2 fold change” value does the source give for RRIRFRPPRLPRPRPRPVPNPRP here?
Answer: -0.0743

Question: With RRIRTRPPRLPRPRPRPQRTPRP as the sequence, how does the “shrunken log2 fold change” value read?
Answer: -0.296

Question: How did the “shrunken log2 fold change” value turn out when RRIRFRPPRLPRPRPRPSEQPRP was run?
Answer: -0.217

Question: With RRIRMRPPRLPRPRPRPGHTPRP as the sequence, how does the “shrunken log2 fold change” value read?
Answer: 0.488

Question: For RRIRTRPPRLPRPRPRPGTYPRP, which “shrunken log2 fold change” value is on record?
Answer: 0.0862

Question: How did the “shrunken log2 fold change” value turn out when RRIRCRPPRLPRPRPRPSCHPRP was run?
Answer: -0.301

Question: RRIRVRPPRLPRPRPRPCGPPRP was tested. Which “shrunken log2 fold change” value did it give?
Answer: -0.0876

Question: Which “shrunken log2 fold change” value does the source give for RRIRTRPPRLPRPRPRPIVNPRP here?
Answer: -0.655

Question: With RRIRMRPPRLPRPRPRPMPHPRP as the sequence, how does the “shrunken log2 fold change” value read?
Answer: 0.161

Question: RRIRKRPPRLPRPRPRPTSYPRP was tested. Which “shrunken log2 fold change” value did it give?
Answer: -0.152

Question: Which “shrunken log2 fold change” value does the source give for RRIRMRPPRLPRPRPRPWVGPRP here?
Answer: 0.171

Question: RRIRTRPPRLPRPRPRPFPKPRP was tested. Which “shrunken log2 fold change” value did it give?
Answer: -0.112

Question: RRIRCRPPRLPRPRPRPWNQPRP was tested. Which “shrunken log2 fold change” value did it give?
Answer: -0.516

Question: With RRIRPRPPRLPRPRPRPVWLPRP as the sequence, how does the “shrunken log2 fold change” value read?
Answer: 0.577

Question: RRIRIRPPRLPRPRPRPQLMPRP was tested. Which “shrunken log2 fold change” value did it give?
Answer: -0.442

Question: For RRIRARPPRLPRPRPRPHVPPRP, which “shrunken log2 fold change” value is on record?
Answer: -0.242

Question: RRIRRRPPRLPRPRPRPRPHPRP was tested. Which “shrunken log2 fold change” value did it give?
Answer: 1.6

Question: How did the “shrunken log2 fold change” value turn out when RRIRYRPPRLPRPRPRPPPAPRP was run?
Answer: 0.878

Question: RRIRQRPPRLPRPRPRPGWMPRP was tested. Which “shrunken log2 fold change” value did it give?
Answer: -0.115

Question: RRIRDRPPRLPRPRPRPHDQPRP was tested. Which “shrunken log2 fold change” value did it give?
Answer: -0.0965

Question: RRIRSRPPRLPRPRPRPGQNPRP was tested. Which “shrunken log2 fold change” value did it give?
Answer: 0.323

Question: How did the “shrunken log2 fold change” value turn out when RRIRNRPPRLPRPRPRPWCFPRP was run?
Answer: -0.472

Question: Which “shrunken log2 fold change” value does the source give for RRIRQRPPRLPRPRPRPWFEPRP here?
Answer: -0.00226

Question: With RRIRWRPPRLPRPRPRPEQWPRP as the sequence, how does the “shrunken log2 fold change” value read?
Answer: 0.724

Question: For RRIRARPPRLPRPRPRPSPSPRP, which “shrunken log2 fold change” value is on record?
Answer: 0.52

Question: RRIRKRPPRLPRPRPRPEKAPRP was tested. Which “shrunken log2 fold change” value did it give?
Answer: 0.0283

Question: With RRIRPRPPRLPRPRPRPIMPPRP as the sequence, how does the “shrunken log2 fold change” value read?
Answer: -0.257

Question: RRIRMRPPRLPRPRPRPQDDPRP was tested. Which “shrunken log2 fold change” value did it give?
Answer: -0.00208
